The results in this text go back to patent US20020102651A1 (Dana-Farber, published 2002).

The test deals with T1, human B7-4M (B7-4 membrane form), expressed on transfected COS or CHO cells (human, UniProt Q9NZQ7 19-290).
T1 construct: also called 292
The test can be described thus: FACS on B7-4M-transfected COS cells. The procedure:
COS cells were transfected with either vector DNA (pCDNAI), or an expression plasmid containing the B7-4M cDNA. After 72 hours, the tansfected COS cells were detached by incubation in PBS containing 0.5 mM EDTA for 30 min. at 37° C.
The ability of COS cells expressing B7-4M to bind to various T cell ligands and antibodies was tested. […] The ability of COS cells expressing B7-4M to bind to IgG and murine ICOS-his fusion protein was also tested. No binding of human B7-4 to murine ICOS was detected (FIG. 9).

T1 sequence (Q9NZQ7 19-290): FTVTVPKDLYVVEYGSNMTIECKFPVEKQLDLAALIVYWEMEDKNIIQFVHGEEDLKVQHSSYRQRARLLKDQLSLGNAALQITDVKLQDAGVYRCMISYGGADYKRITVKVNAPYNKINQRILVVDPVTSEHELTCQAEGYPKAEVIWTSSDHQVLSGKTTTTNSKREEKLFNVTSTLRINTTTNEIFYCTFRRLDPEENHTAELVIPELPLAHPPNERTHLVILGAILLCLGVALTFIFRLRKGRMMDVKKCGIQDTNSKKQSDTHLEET

B1: murine ICOS-his fusion protein (receptor, mouse, UniProt Q9WVS0 21-144, looked up)
chain: EINGSADHRMFSFHNGGVQISCKYPETVQQLKMRLFREREVLCELTKTKGSGNAVSIKNPMLCLYHLSNNSVSFFLNNPDSSQGSYYFCSLSIFDPPPFQERNLSGGYLHIYESQLCCQLKLWL
notes: not shown: his tag
Take B1: the binding result is recorded as “no binding”.
